Measured values: the supplement of paper PMC10567573

B1: LRRC45 (parent)
chain: FQTRQEMTSMSAELKMRAIQAEER

Variants of: B1
Experiment: protein stability index of a GFP-peptide fusion (GPS, HEK-293T) (PSI 1-6); higher = more stable
Conditions: c terminus: a fixed tail appended
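Also: lentivirally expressed fusions sorted by FACS into six bins by GFP to DsRed ratio, PSI derived from sequencing read proportions per bin multiplied by bin number.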

Protein stability index: each site, then its substitutions
K15: T 4.01 | C 3.86 | M 3.26 | W 2.88 | G 4.2 | D 4.65 | L 3.05 | S 4.23 | H 4.16 | F 2.97 | Y 3.59 | P 4.38 | E 4.88 | A 4.16 | V 3.29 | I 3.27 | Q 4.12 | R 4.38 | N 4.26
A18: G 3.81 | F 3.51 | H 3.33 | E 4.08 | V 3.41 | R 3.96 | C 3.69 | Q 3.85 | P 3.45 | D 4.33 | M 3.73 | W 3.54 | I 3.75 | T 3.95 | K 3.72 | Y 3.69 | N 3.88 | S 3.82 | L 3.92
L14: N 4.18 | K 4.12 | I 4.13 | M 3.83 | S 4.11 | A 4.16 | E 3.99 | V 4.21 | W 3.2 | F 3.21 | D 3.89 | Q 4.28 | H 4.34 | R 4.23 | C 3.72 | T 4.38 | Y 3.74 | P 3.99 | G 4.24
R24: Y 3.71 | D 4.29 | K 4.26 | I 3.94 | S 4.3 | M 3.54 | T 3.96 | G 4.18 | V 3.67 | Q 4.5 | C 3.4 | E 4.5 | W 2.85 | F 3.19 | N 4.05 | A 4.19 | H 4.01 | L 4.05 | P 3.88
E22: A 3.56 | M 3.64 | T 3.23 | G 2.53 | N 3.44 | F 2.56 | I 3.1 | Q 3.37 | H 2.92 | K 3.57 | R 3.18 | V 3.18 | S 3.28 | P 2.74 | C 3.18 | D 3.64 | Y 3.9 | L 2.59 | W 2.56
Q20: L 3.57 | A 4.3 | N 3.83 | R 3.2 | I 2.8 | C 3 | V 3.28 | S 4.11 | P 3.76 | F 2.26 | H 3.98 | G 3.62 | E 4.34 | K 3.5 | Y 3.08 | T 3.9 | W 2.74 | M 3.52 | D 3.99
I19: Y 3.8 | P 3.84 | D 4.73 | H 4.38 | C 3.96 | V 4.28 | E 4.55 | A 4.53 | W 3.04 | N 4.27 | L 4.08 | S 4.38 | R 4.19 | G 3.89 | Q 4.09 | K 4.68 | M 3.84 | F 3.81 | T 4.21
R17: Q 3.89 | W 2.3 | E 4.33 | K 4.25 | D 4.59 | G 3.82 | Y 3.67 | I 3.94 | L 3.95 | C 4.01 | F 2.84 | A 4.34 | T 4.08 | H 4.09 | V 3.75 | M 4.18 | S 3.43 | N 4.07 | P 4.33
A21: D 4.63 | H 4.03 | T 3.83 | Q 3.79 | G 3.97 | E 4.32 | V 3.59 | W 3.43 | F 3.89 | S 3.81 | C 3.68 | L 4 | M 3.57 | R 3.8 | K 3.76 | Y 3.76 | N 4.15 | I 3.49 | P 3.89
E23: Q 4.11 | S 3.52 | A 3.16 | F 2.99 | G 3.56 | K 3.53 | D 3.33 | H 3.39 | T 3.16 | M 3.16 | I 3.7 | R 3.54 | C 2.61 | N 3.32 | Y 2.88 | L 3.1 | W 2.26 | P 3.81 | V 3.22
M16: A 4.39 | R 4.21 | H 3.88 | G 4 | W 3.66 | S 4.37 | F 3.75 | C 3.79 | T 3.96 | N 4.16 | D 4.38 | Y 3.83 | V 3.99 | K 4.36 | I 3.52 | L 4.24 | Q 4.03 | P 3.98 | E 4.68
E13: S 3.83 | T 3.53 | M 3.47 | V 3.35 | Y 2.73 | Q 4.04 | W 2.97 | N 3.1 | P 3.69 | R 3.57
